# Assay results taken from patent publication US20190309288A1, “TARGETED MUTAGENESIS” (THE BOARD OF TRUSTEES OF THE LELAND STANFORD JUNIOR …, priority 2016, published 2019).
# Where a chain is given by its changes, count along the chain named. Numbers in names are those of the source.
# B1: R78N: PSMB5 variant, chr14: 23033640 C > A/T (protein, UniProt P28074 60-263, looked up, variant R78N)
# Proteasome subunit beta type-5: TTTLAFKFRHGVIVAADSNATAGAYIASQTVKKVIEINPYLLGTMAGGAADCSFWERLLARQCRIYELRNKERISVAAASKLLANMVYQYKGMGLSMGTMICGWDKRGPGLYYVDSEGNRISGATFSVGSGSVYAYGVMDRGYSYDLEVEQAYDLARRAIYQATYRDAYSGGAVNLYHVREDGWIRVSSDNVADLHEKYSGSTP
# B2: G82D: PSMB5 variant, chr14: 23033628 C > T (protein, UniProt P28074 60-263, looked up, variant G82D)
# Proteasome subunit beta type-5: B1 Proteasome subunit beta type-5 with N19R, G23D
# B3: G242D: PSMB5 variant in exon 4, chr14: 23026156 C > T (protein, UniProt P28074 60-263, looked up, variant G242D)
# Proteasome subunit beta type-5: B1 Proteasome subunit beta type-5 with N19R, G183D
# B4: A108V: PSMB5 variant, chr14: 23033550 G > A; residue known to be involved in binding bortezomib (protein, UniProt P28074 60-263, looked up, variant A108V)
# Proteasome subunit beta type-5: B1 Proteasome subunit beta type-5 with N19R, A49V
# B5: L11L: PSMB5 synonymous mutation in exon 1, chr14: 23034851 G > A (protein, UniProt P28074 60-263, looked up)
# Proteasome subunit beta type-5: B1 Proteasome subunit beta type-5 with N19R
# modifications: synonymous mutation L11L
# notes: PSMB5 synonymous mutation in exon 1, chr14: 23034851 G > A
# What was measured:
# [1] = system: GFP; conditions: cells expressing dCas9, MS2-AID*Δ, mCherry, sgRNA individually
# Description: (§1) Lentiviral production as well as infection and culturing of K562 cells (ATCC) were performed as described (45). Parental K562 cell lines were generated by infecting dCas9-Blast (pGH125) followed by blasticidin selection (10 μg/mL, Gibco) for 7 days. Cells were subsequently infected with both GFP (pGH045) and mCherry (pGH044) expression vectors or with a wtGFP (pGH220) expression vector and sorted via FACS for fluorescence. These cell lines were used as the parental samples in the sequencing assays. For experiments using an integrated construct, cells were infected with MS2-AID (pGH153, 156, 183, and 335) expressing vectors followed by selection with hygromycin B (200 μg/mL, Life Technologies) for 7 days. All cell lines were maintained in a humidified incubator (37° C., 5% CO2), and checked regularly for mycoplasma contamination.
# (§2) Nucleofection of K562 cells was performed as described (46). 1 million K562 cells were harvested for each electroporation. Cells were centrifuged at 300×g for 5 minutes and resuspended in 100 μL of nucleofection solution and mixed with plasmid DNA (5 μg MS2-AID expressing plasmid and 5 μg sgRNA expression vector) and loaded into a 2 mm cuvette (VWR). Electroporations were performed using the T-016 program on the Lonza Nucleofector 2b. After electroporation, cells were rescued in warm, supplemented RPMI media.
# [2] = system: GFP and mCherry; test: Simultaneous mutation of two loci, flow cytometry; type: cell-based; conditions: cells expressing dCas9, MS2-AID*Δ
# Description: Scatter plots were generated in FlowJo.
# Independent mutagenesis at multiple locations is typically not possible with traditional directed evolution experiments. However, the CRISPR/Cas9 system can target multiple loci using different sgRNAs (26, 27). Accordingly, experiments were conducted using two guides, one targeting GFP (sgGFP.10) and the other targeting mCherry (sgmCherry.1), both individually and in combination.
# [3] = system: mCherry; test: mCherry fluorescence by flow cytometry as proxy for off-target mutation; type: cell-based; conditions: cells expressing dCas9, MS2-AID*Δ, GFP, sgRNA individually
# Description: as §1, §2
# [4] = system: PSMB5; test: Installation and validation of bortezomib resistant PSMB5 mutations, cell viability; type: cell-based; conditions: mutation knocked into K562 cells at native PSMB5 locus; 20 nM bortezomib, 14 days; compared to controls
# Description: sgRNAs were designed to target near the location of the installed SNP and 101-nt donor oligos were designed to be centered around the installed mutation. Oligonucleotides with proper overhangs were ordered from IDT and annealed before ligation into BbsI digested pGH020, a hu6 driven sgRNA expression vector. All plasmids were verified by Sanger sequencing.
# K562 cells expressing Cas9 were electroporated with 5 μg of sgRNA expressing vector and 100 picomoles of donor oligo. Cells were grown for 6 days before 300,000 cells were placed under selection with 20 nM bortezomib for 14 days. The viability of the cells was measured by flow cytometry using a live cell gate (FSC/SSC). After selection, 750,000 cells were harvested and genomic DNA was extracted using the QiaAmp DNA Mini Kit (Qiagen). The PSMB5 exonic locus containing the mutation was PCR amplified, gel purified, and ligated into the pCR-Blunt vector using the Zero-Blunt cloning kit (Life Technologies). 8-15 colonies were Sanger sequenced for each sample.
# Eight of these mutations were functionally validated by knocking each one into the genome separately at the native PSMB5 locus using active Cas9 cutting followed by HDR mediated by a DNA donor oligo (26, 27). To control for the effect of Cas9 cutting and HDR, a synonymous mutation not identified in our screen was knocked into each exon. Cas9 expressing K562 cells were electroporated with donor oligo and sgRNA and incubated for six days followed by subsequent selection with bortezomib. After 14 days, the viability of the cells was measured (FIG. 12). […] For the most resistant mutations, the PSMB5 locus was sequenced following bortezomib selection and the presence of the expected mutation was verified in the majority of non-frameshifted sequences (FIG. 13). Together, these experiments indicate that the technology provided herein selectively mutagenized an endogenously expressed protein target, identifying known and novel mutants that confer drug resistance.
Molecule,protection against bortezomib-induced cell death (viability) [4],also measured
"sgGFP.10: sgRNA targeting GFP, sequence CGTCGCCGTCCAGCTCGACC (SEQ ID NO: 38) (chemistry not given here)",,GFP low population [1]: ~15%; cells with mutations at both loci (neither GFP nor mCherry) [2]: 0.26%
"sgmCherry.1: sgRNA targeting mCherry, sequence GCGGTCTGGGTGCCCTCGTA (SEQ ID NO: 81) (listed as DNA, chemistry not fully specified)",,mCherry low population [3]: ~15%; cells with mutations at both loci (neither GFP nor mCherry) [2]: 0.30%
B1,strongly protective,
B2,more modest protection,
B3,strongly protective,
B4,strongly protective,
B5,more modest protection,
